Patent US20200268847A1, “Methods of Treating Newly Diagnosed Multiple Myeloma with a Combination of An Antibody that Specifically Binds CD38, Lenalidomide and Dexamethasone” (Janssen Biotech, Inc., priority 2019, published 2020)

Tested on: patients with newly diagnosed multiple myeloma ineligible for HDC and ASCT
Assay: MAIA: safety, adverse events graded by NCI-CTCAE version 4, treatment discontinuations
From the text: Safety will be measured by adverse events, laboratory test results, ECGs, vital sign measurements, physical examination findings, and assessment of ECOG performance status score.
Safety analyses included adverse event assessment graded in severity according to NCI-CTCAE version 4, electrocardiograms, clinical laboratory testing, physical examinations, and vital signs.
The safety population included patients who received any dose of trial treatment.

## Daratumumab (DARZALEX®): antibody that specifically binds CD38, heavy chain of SEQ ID NO: 9 and light chain of SEQ ID NO: 10 [reference compound]
% of patients with infusion reactions
  infusion-related reactions occurring during the first dose: 98.0%
% of patients, any grade
  infusion-related reactions: 40.9%
Grade 4 hypertension
  patients who discontinued daratumumab treatment due to an infusion-related reaction: one
In vivo
  infusion-related reactions, grade 3 or 4 events: 2.7%
  infusion-related reactions, grade 5 events: no grade 5 events were reported
